For this data set, the target named is MtbGyrBAcore(Y129F) (Mycobacterium tuberculosis, UniProt P9WG45 426-675+P9WG47:2-500, Y129F;internal_change). In words: X-ray crystallography.

1 molecule from article PMC9844538 (Nature chemical biology, 2022) can be followed below.

As to GGCCCTACGGCTGAAAGCCGTAGGGCCCTACGGCTGAAAGCCGTAG (structured_DNA) [singly nicked duplex with GAA triloop ends], the binding result was “binds”.
